The source of these data is PMC9949068 (bioRxiv, 2023).

Changes are numbered by the printed parent chain. Numbers in names are those of the source.

The data set “cryo-EM structure” concerns the molecule itself. Put plainly: cryo-EM structure.
The data set “negative stain EM” concerns the molecule itself. In words: negative stain EM.

B1: human GLS2 (K253A), residues 38-602 (enzyme)
chain: HHLSEAAAQGRETPHSHQPQHQDHDSSESGMLSRLGDLLFYTIAEGQERIPIHKFTTALKATGLQTSDPRLRDCMSEMHRVVQESSSGGLLDRDLFRKCVSSNIVLLTQAFRKKFVIPDFEEFTGHVDRIFEDVKELTGGKVAAYIPQLAKSNPDLWGVSLCTVDGQRHSVGHTKIPFCLQSCVKPLTYAISISTLGTDYVHKFVGKEPSGLRYNALSLNEEGIPHNPMVNAGAIVVSSLIKMDCNKAEKFDFVLQYLNKMAGNEYMGFSNATFQSEKETGDRNYAIGYYLKEKKCFPKGVDMMAALDLYFQLCSVEVTCESGSVMAATLANGGICPITGESVLSAEAVRNTLSLMHSCGMYDFSGQFAFHVGLPAKSAVSGAILLVVPNVMGMMCLSPPLDKLGNSHRGTSFCQKLVSLFNFHNYDNLRHCARKLDPRREGAEIRNKTVVNLLFAAYSGDVSALRRFALSAMDMEQKDYDSRTALHVAAAEGHIEVVKFLIEACKVNPFAKDRWGNIPLDDAVQFNHLEVVKLLQDYQDSYTLSETQAEAAAEALSKENLESMV
Turning to B1, the binding result in the data set “cryo-EM structure” is reported as “binds”.

B2: human GLS2 (N308A), residues 38-602 (enzyme)
chain: B1 chain with A216K, N271A
As for B2, the binding result in the data set “negative stain EM” was “binds”.
